Assay results as given in the supplement of paper PMC7877785.
± gives the uncertainty stated by the source.

Assay: self-splicing fitness, log relative to wild type (ln ratio); higher = more splicing; Tetrahymena group I intron in knt gene, E. coli kanamycin selection, DiMSum; sequences stand for … in CUCUCU…GGAGGGAAAAGUUAUCAGGCAUGCACCUGGUAGCUAGUCUUUAAACCAAUAGAUUGCAUCGGUUUAAAAGGCAAGACCGUCAAAUUGCGGGAAAGGGGUCAACAGCCGUUCAGUACCAAGUCUCAGGGGAAACUUUGAGAUGGCCUUGCAAAGGGUAUGGUAAUAAGCUGACGGACAUGGUCCUAACCACGCAGCCAAGUCCUAAGUCAACAGAUCUUCUGUUGAUAUGGAUGCAGUUCACAGACUAAAUGUCGGUCGGGGAAGAUGUAUUCUUCUCAUAAGAUAUAGUCGGACCUCUCCUUAAUGGGAGCUAGCGGAUGAAGUGAUGCAACACUGGAGCCGCUGGGAACUAAUUUGUAUGCGAAAGUAUAUUGAUUAGUUUUGGAGUACUCGUGGUCG
Method in brief: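 The eight P1ex-region nucleotides of an intron in the knt kanamycin-resistance gene on pET-22b(+) were all randomised and the library put into E. coli BL21(DE3). Six replicate transformations were grown overnight at 37°C or 30°C on LB agar with or without 25 μg/mL kanamycin, together with 100 μg/mL carbenicillin, 50 μM IPTG and 0.2% rhamnose. Colonies were pooled and amplicon-sequenced on an Illumina HiSeq 2500. Fitness from DiMSum is the error-weighted combination of wild-type-normalised replicate fold changes, kanamycin over none.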

Sequence | self-splicing fitness (ln) (30 °C) | self-splicing fitness (ln) (37 °C)
UGAAAGCAAUAUUACGGGCG | -0.0565 ± 0.085 | 0.348 ± 0.11
CAAAAGCAAUAUUACGUAAG | -0.419 ± 0.047 | 0.0644 ± 0.059
GGAAAGCAAUAUUACGUUAA | -3.35 ± 0.16 | -1.84 ± 0.15
AAAUAGCAAUAUUACGCCCU | 0.528 ± 0.16 | 0.336 ± 0.21
AAAUAGCAAUAUUACGCUUU | -2.63 ± 0.15 | -1.09 ± 0.12
AAGUAGCAAUAUUACGUGAA | -2.36 ± 0.12 | -1.78 ± 0.13
UCGCAGCAAUAUUACGUUUG | -2.89 ± 0.099 | -1.09 ± 0.11
UCCCAGCAAUAUUACGGGGG | -4 ± 0.18 | -3.66 ± 0.33
GCAGAGCAAUAUUACGACAG | -3.01 ± 0.15 | -2.74 ± 0.26
GAUCAGCAAUAUUACGUGCA | -0.293 ± 0.072 | -0.489 ± 0.085
UGUUAGCAAUAUUACGAGAU | – | -2.58 ± 0.44
GCCAAGCAAUAUUACGAUAA | -3.09 ± 0.17 | -1.6 ± 0.2
GUACAGCAAUAUUACGCCGA | – | -1.96 ± 0.41
CUGGAGCAAUAUUACGCCAG | – | -2.59 ± 0.33
GAUAAGCAAUAUUACGCUCG | -0.655 ± 0.15 | 0.0364 ± 0.17
UCCCAGCAAUAUUACGUUGC | -3.5 ± 0.27 | -2.06 ± 0.27
ACGUAGCAAUAUUACGUCAU | -2.12 ± 0.17 | -2.4 ± 0.3
ACUCAGCAAUAUUACGUGCC | -0.982 ± 0.13 | -0.189 ± 0.12
GACGAGCAAUAUUACGGCGA | -2.12 ± 0.13 | -1.65 ± 0.13
ACUAAGCAAUAUUACGUGUG | -2.18 ± 0.07 | -1.06 ± 0.076
UAACAGCAAUAUUACGAGAC | -4.18 ± 0.26 | -2.78 ± 0.29
AACUAGCAAUAUUACGAAGA | -2.62 ± 0.14 | -1.05 ± 0.12
AGAUAGCAAUAUUACGUAGG | -3.49 ± 0.17 | -1.41 ± 0.18
CGUGAGCAAUAUUACGGGGG | -2.65 ± 0.29 | -3.28 ± 0.37
GGUUAGCAAUAUUACGAUGG | -1.88 ± 0.23 | -1.16 ± 0.24

Sequence | self-splicing fitness (ln) (30 °C) | self-splicing fitness (ln) (37 °C)
GUUGAGCAAUAUUACGGGUU | -3.57 ± 0.27 | -2 ± 0.21
GCGAAGCAAUAUUACGAAUA | -2.34 ± 0.19 | -1.73 ± 0.24
GACAAGCAAUAUUACGUGGU | -3.63 ± 0.11 | -2.76 ± 0.12
UACAAGCAAUAUUACGACCG | -0.233 ± 0.096 | 0.952 ± 0.13
GCAGAGCAAUAUUACGCAAG | -3.03 ± 0.16 | -2.28 ± 0.17
AUUCAGCAAUAUUACGGCAU | -0.321 ± 0.065 | 1.01 ± 0.1
AAUUAGCAAUAUUACGAACG | -0.548 ± 0.13 | -0.153 ± 0.19
GCCCAGCAAUAUUACGUAUA | -2.1 ± 0.11 | -1.33 ± 0.11
UUUAAGCAAUAUUACGUAAC | -3.67 ± 0.29 | -2.17 ± 0.19
GUUAAGCAAUAUUACGGAUA | -2.09 ± 0.12 | -1.61 ± 0.16
GAAUAGCAAUAUUACGAUCU | 0.384 ± 0.078 | -0.286 ± 0.079
AACGAGCAAUAUUACGGGUG | -3.4 ± 0.17 | -2.34 ± 0.2
UAGGAGCAAUAUUACGUCGA | -3.16 ± 0.2 | -1.55 ± 0.21
CCGCAGCAAUAUUACGUUUU | -3.13 ± 0.13 | -3.26 ± 0.2
AUCCAGCAAUAUUACGAUGG | -3.82 ± 0.27 | -2.85 ± 0.25
GCCUAGCAAUAUUACGCUAG | – | -2.47 ± 0.3
CGAAAGCAAUAUUACGCUGC | -3.68 ± 0.23 | -2.69 ± 0.19
CUAAAGCAAUAUUACGAGCA | -3.41 ± 0.25 | -1.08 ± 0.2
GUGAAGCAAUAUUACGCGGC | -2.03 ± 0.33 | -1.24 ± 0.4
UCAGAGCAAUAUUACGAUGG | -2.97 ± 0.21 | -1.33 ± 0.2
GUUAAGCAAUAUUACGGUGC | -2.42 ± 0.1 | -1.23 ± 0.12
CUUAAGCAAUAUUACGCGGC | -2.93 ± 0.24 | -2.48 ± 0.27
ACGGAGCAAUAUUACGCGAC | -2.45 ± 0.21 | -2.55 ± 0.41
ACCAAGCAAUAUUACGUGAC | -3.55 ± 0.13 | -1.99 ± 0.11
CAGCAGCAAUAUUACGACAU | -3.505 ± 0.021 | -1.82 ± 0.034

Sequence | self-splicing fitness (ln) (30 °C) | self-splicing fitness (ln) (37 °C)
GUAUAGCAAUAUUACGUGUG | -3.28 ± 0.14 | -2 ± 0.13
CAAUAGCAAUAUUACGGGGU | -4.27 ± 0.39 | -2.48 ± 0.23
AUUCAGCAAUAUUACGAUUC | -1.62 ± 0.059 | -0.407 ± 0.077
AGGCAGCAAUAUUACGCUCU | -2.31 ± 0.34 | –
CUUUAGCAAUAUUACGGGAC | -3.25 ± 0.36 | -2.36 ± 0.42
CCGCAGCAAUAUUACGCUCG | -1.9 ± 0.07 | -1.41 ± 0.094
UGUUAGCAAUAUUACGGCUA | -1.01 ± 0.19 | 0.14 ± 0.19
AUGUAGCAAUAUUACGACUU | -0.0543 ± 0.089 | -0.312 ± 0.088
GUAUAGCAAUAUUACGUGCU | -2.77 ± 0.16 | -1.91 ± 0.22
AUGUAGCAAUAUUACGGCAG | -0.715 ± 0.073 | 0.288 ± 0.11
UACAAGCAAUAUUACGCUAA | -1.95 ± 0.11 | -1.35 ± 0.11
GAAUAGCAAUAUUACGAGCC | -1.48 ± 0.17 | 0.00455 ± 0.17
GGCAAGCAAUAUUACGGUCU | -0.851 ± 0.093 | -0.575 ± 0.1
GCGCAGCAAUAUUACGUUCC | -0.792 ± 0.096 | -0.406 ± 0.13
ACAUAGCAAUAUUACGAAGA | -3.19 ± 0.18 | -2.72 ± 0.16
GGAAAGCAAUAUUACGCAUC | -2.7 ± 0.17 | -2.49 ± 0.31
GUUGAGCAAUAUUACGUUAG | -4.58 ± 0.41 | -2.82 ± 0.43
UUACAGCAAUAUUACGUCAA | -1.14 ± 0.082 | -0.187 ± 0.081
AACUAGCAAUAUUACGUGAA | -1.86 ± 0.081 | -1.51 ± 0.11
AUUAAGCAAUAUUACGUAGU | -1.53 ± 0.071 | -0.166 ± 0.085
UCCUAGCAAUAUUACGCGGG | -3.2 ± 0.1 | -2.66 ± 0.14
GCAGAGCAAUAUUACGCCUC | -2.46 ± 0.21 | -2.38 ± 0.34
CCGUAGCAAUAUUACGACGU | -0.571 ± 0.075 | -0.205 ± 0.088
GUUGAGCAAUAUUACGAGGU | -3.2 ± 0.28 | –
ACCCAGCAAUAUUACGCAUC | -1.33 ± 0.076 | 0.0782 ± 0.098

Sequence | self-splicing fitness (ln) (30 °C) | self-splicing fitness (ln) (37 °C)
UGCCAGCAAUAUUACGUCCA | -0.0851 ± 0.076 | 0.335 ± 0.09
AGAAAGCAAUAUUACGUGUC | -4.33 ± 0.31 | -1.67 ± 0.18
UGUAAGCAAUAUUACGGACC | -1.18 ± 0.18 | -0.408 ± 0.18
GCCGAGCAAUAUUACGAGCA | -1.93 ± 0.11 | -0.944 ± 0.11
CCAUAGCAAUAUUACGCUAC | -4.24 ± 0.28 | -3.23 ± 0.32
CUAGAGCAAUAUUACGCGUG | -0.446 ± 0.1 | -0.476 ± 0.12
UGUUAGCAAUAUUACGUCGU | -3.5 ± 0.33 | -2.69 ± 0.23
UUAGAGCAAUAUUACGAGUA | -3.31 ± 0.29 | -2.1 ± 0.19
CUGCAGCAAUAUUACGGUGC | -3.97 ± 0.24 | -1.96 ± 0.23
AGCUAGCAAUAUUACGGAGA | -2.24 ± 0.22 | -3.14 ± 0.37
CUCUAGCAAUAUUACGAGUC | – | -2.8 ± 0.3
GGGAAGCAAUAUUACGUUGA | -3.37 ± 0.23 | -1.94 ± 0.18
GGGAAGCAAUAUUACGUACG | -0.982 ± 0.15 | -0.441 ± 0.18
GGGCAGCAAUAUUACGGACA | -1.97 ± 0.38 | -0.246 ± 0.39
UUGUAGCAAUAUUACGCACG | -1.14 ± 0.11 | -0.742 ± 0.13
AGACAGCAAUAUUACGACUU | -0.384 ± 0.074 | 0.347 ± 0.099
UAUCAGCAAUAUUACGCAAA | -0.36 ± 0.12 | -0.755 ± 0.11
AACCAGCAAUAUUACGCUAC | -2.63 ± 0.14 | -2.05 ± 0.13
CCUUAGCAAUAUUACGUGGC | -4.19 ± 0.31 | -2.88 ± 0.31
CUUUAGCAAUAUUACGAGAC | -1.83 ± 0.36 | -2.9 ± 0.4
GACGAGCAAUAUUACGCCAG | – | -2.63 ± 0.28
UAAAAGCAAUAUUACGAUGA | -0.245 ± 0.085 | 0.0881 ± 0.087
